T1: reduced recombinant human IL-33 (His-tagged, amino acids 112-270) (human, UniProt O95760 112-270)
T1 construct: range 112-270; Expressed in E. coli; kept in the reduced state (all four cysteines free) with TCEP; also called reduced hIL-33; hIL-33
T1 sequence: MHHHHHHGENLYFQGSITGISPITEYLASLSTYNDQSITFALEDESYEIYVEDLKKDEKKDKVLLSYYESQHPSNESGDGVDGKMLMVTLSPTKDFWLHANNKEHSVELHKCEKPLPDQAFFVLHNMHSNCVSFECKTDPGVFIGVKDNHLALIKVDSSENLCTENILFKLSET


Experiments:
[1] = target: T1, reduced recombinant human IL-33 …; assay: SPR (Biacore 8K), antibody captured on Protein A chip, reduced hIL-33 as analyte, multi-cycle kinetics, 25 C
Procedure: (§1) A Series S Protein A sensor chip (Cytiva, Marlborough, MA, USA) was used to capture recombinant chimeric human IgG versions of anti-hIL-33 Abs using a BIACORE® 8 k instrument (Cytiva, Marlborough, MA, USA). Antibody binding to human histidine-tagged hIL-33 (Genentech, South San Francisco, CA, USA) was measured using multi-cycle kinetics. Sensorgrams were recorded using an injection time of 2 minutes with a flow rate of 30 μL/min, at 25° C. or 37° C., and with a running buffer of 10 mM N-2-hydroxyethylpiperazine-N′-2-ethanesulfonic acid (HEPES), pH 7.4, 150 mM sodium chloride (NaCl), 3 mM ethylenediaminetetraacetic acid (EDTA), and 0.005% TWEEN® 20. After injection, dissociation of hIL-33 from the antibody was monitored for 10 minutes in running buffer. The surface was regenerated between binding cycles with a 30 μL injection of 10 mM Glycine hydrochloric acid (HCl) pH 1.5. After subtraction of a blank containing running buffer only, sensorgrams were analyzed using a 1:1 Langmuir binding model with software supplied by the manufacturer to calculate the kinetics and binding constants.

[2] = target: T1, reduced recombinant human IL-33 …; assay: SPR (Biacore), antibody captured, reduced hIL-33 as analyte
Procedure: as §1

Kd [1] [nM]	koff [1] [s⁻¹]	kon [1] [M⁻¹ s⁻¹]	Kd [2] [nM]	Binder
0.777	0.000243	312000	0.487	rat/human chimeric anti-hIL-33 3F10 MAb (antibody, human IgG1, kappa, V domains shown, Rat variable domains on human IgG1/kappa constant regions; also called clone 3F10; capture MAb) VH: QVQLEESGPGLVQPSQTLSLTCTVSGFSLTSQNVHWVRQPPGKGLEWMGRMRFNGDTSYNSTLKSRLSISRDTSKNQVFLRLNSLQTDDTGTYYCARQRDNYGSYYFDDWGQGIMVTVSS VL: DTVLTQSPALAVSPGERVTISCRASESVLTLLNWYQQKPGQHPKLLIYLASHLESGVPARFSGRGSGTDFTLTIDPVEADDTASYYCQQSWIDPWTFGGGTTLELKR
0.291	0.000146	501000	0.338	rat IgG2a anti-human IL-33 clone 15.21C7 (antibody, V domains shown, also called rat anti-reduced hIL-33 15.21C7 IgG2a) VH: EVQLVESGGGLVQPGTSLKLSCVASGFTFSDFWMSWVRQTPGKTMEWIADIKNDGSHTKYAPSLQNRFTISRDNAKNTLYLEVTDVRSEDTATYYCTRVGGTYTAYYWGHGVMVTVSS VL: DIQMTQTPSSMPASLGERVTLSCRTSQGINTYLNWYQQKPDGTITPLIHYTSNLESGVPSRFSGSGFGTDYFLTISSLEPEDFAMYFCQQYASSPWTFGGGTKLELKK
